In patent US20150087604A1, “ANTI-FATTY ACID SYNTHASE POLYPEPTIDE AND USE THEREOF” (TIANJIN TOPTECH BIO-SCIENCE & TECHNOLOGY CO., LTD., priority 2011, published 2015):
“Also recorded” adds a separate entry of the source.

Key:
[1] = Polypeptide drugs acute toxicity test; format: in vivo, Kunming white mice; details: 1 g/kg tail intravenous injection; observed 24 hr
Description: Control group and experimental group contained 10 Kunming white mice, with 5 females and 5 males, respectively. Experimental group injected Anti-FAS-P18 with the concentration of 1 g/kg (2.5 mg dried polypeptide drug solved in 0.125 ml ddH2O) by tail intravenous injection; control group, injected 0.25 ml ddH2O. Consecutively observed the mice for 24 hr after injection.

HepG2 cells [2] = assay: MTT assay of cell proliferation of hepatoma cells; format: cell-based; details: synthesized polypeptide 0.1 μM, 1 μM, 10 μM and 100 μM, 48 hr
Description: (§1) Hepatoma cell line HepG2 was adopted in the experiment. Because SREBP-1c is upstream transcription regulatory factor of FAS, whether there is inhibition of SREBP-1c promoter activity at the molecular level can be used to reflect the transcription state of FAS gene by reporter gene assays. Meanwhile, the detection of FAS promoter activity can directly reflect whether the transcription of FAS is inhibited or not. The nuclear factor κB (nuclear factor KB, NF-κB) is an import transcription factor, and increasing of NF-κB promoter activity indicates the increase of cell proliferation. […]
(2) Culture the cells: Within 12 hr for adhesion of cultured cells, different amount of polypeptides plasmids from Step A (0.25 μg, 0.5 μg and 0.75 μg) or different concentrations of synthesized polypeptides from Example 1 (0.1 μM, 1 μM, 10 μM and 100 μM) were transfected with 8 wells for each concentration, and were incubated for 48 hr in the same condition. 0.3 μg pEGFP-C2 plasmids and 1 μg p-Anti-HBxP1# were cotransfected, and using a fluorescence microscope to check for cells containing the GFP plasmid after 24 hr to make sure the percentage of cells that contain GFP is over 70%; […]
(5) Comparison: Read in an ELISA reader at 490 nm to measure the absorbance for each well. Results were calculated by using Student's t-test.

NF-κB promoter = assay: Dual-luciferase reporter gene analysis, NF-κB promoter; format: cell-based; details: HepG2 cells; synthesized polypeptide 0.1 μM, 1 μM, 10 μM and 100 μM; 24 hr incubation
Description: as §1, with “proliferation. Therefore, it can test the effects of the invention polypeptides on the proliferation of HepG2 cell by detection of NF-κB promoter activity and (3-(4,5-dimethylthiazol-2-yl)-2,5-diphenyltetrazolium bromide (MTT).” for “proliferation.”
(7) Immediately put the EP tubes into a Luminometer (manufactured by Turner Biosystems). Within 10 sec after 2 sec balance, measured the luminescence.
(8) Added 100 μl fluorescence bleacher. […]
(9) Measured the luminescence within 10 sec.
The relative activity was the ratio of the value of the first luminescence to the value of the second luminescence.
Results shown are representative of three independent experiments according to Mean±SD, and statistical significance was calculated using Student's t test.

[3] = Weight of nude mice in the inoculation experiment; format: in vivo
Description: (§2) Suspended the HepG2 cells at exponential phase by treating with trypsin, and counted the number of cells to dilute to 1×10^7 cells/ml with physiological saline, and then store in the ice water. 12 Mice used were 4- to 6-week-old BALB/C females, and were randomly divided into two groups: (1) Control group, injected 0.2 ml diluted cells to the armpit of left forelimb for each mouse, and only injected 0.5 ml ddH2O (without polypeptide drugs); (2) experimental group (the treatment dose was 10 mg/kg), injected 0.2 ml diluted cells to the armpit of left forelimb for each mouse, and within 7 days after the injection, tumor volume (V=L×W^2×0.5) reached to 100 mm^3. And then, injected the above mentioned polypeptide drugs (dried polypeptide drug solved in 0.5 ml ddH2O) once in two day, total 10 times, and recorded the tumor volume before injection. Within 24 hr after the last dose, weighted the mice, and killed the mice to weight the tumor tissue, anti-tumor rate was calculated as follow: […]

HepG2 cells [4] = assay: Inoculation experiment in nude mice (HepG2 tumor growth); format: in vivo; details: 10 mg/kg, once in two day, total 10 times
Description: as §2

For “Gly-Gly-Cys-Arg-His-Lys-Leu-Val-Cys-Ala-Pro-Ala-Pro-Cys-Asn-Phe-Phe-Thr [Anti-FAS-P18]”, the “abnormal behaviors after injection” value [1] was “do not have abnormal behaviors”, the “changes in weight compared with control group” value [1] was “no abnormal changes in weight compared with control group” and the “cell proliferation (MTT)” value (HepG2 cells [2]) was “inhibits cell proliferation in the HepG2 cells in a dose-dependent manner”. For the same substance, the “activity of NF-κB promoter” value (NF-κB promoter) was “inhibits the activity of NF-κB promoter in HepG2 cells in a dose-dependent manner”, the “impact on the weight of nude mice” value ([3]; 10 mg/kg, once in two day, total 10 times) was “no significantly impact on the weight of nude mice” and the “Weight (X ± S, g) After dose” value ([3]; body weight of mice after dose, 10 mg/kg, once in two day, total 10 times) was 21.83 ± 0.82 g. The “Weight (X ± S, g) Before dose” value ([3]; body weight of mice before dose, experimental group 10 mg/kg) was 15.33 ± 0.75 g, the “growth and proliferation of HepG2 cells in nude mice” value (HepG2 cells [4]) was “inhibits the growth and proliferation in the HepG2 cells; also recorded: inhibits the growth and proliferation of the HepG2 cells” and the “Anti-tumor rate (%)” value (HepG2 cells [4]; from tumor weight vs control) was 43.06%. For the same substance, the “Tumor Weight (X ± S, g)” value (HepG2 cells [4]; within 24 hr after the last dose) was 0.42 ± 0.09 g.
